This test has as its target T1, Chryseobacterium sp-62563 deamidase polypeptide (second polypeptide, deamidase domain), wildtype (Chryseobacterium sp-62563).
T1 sequence: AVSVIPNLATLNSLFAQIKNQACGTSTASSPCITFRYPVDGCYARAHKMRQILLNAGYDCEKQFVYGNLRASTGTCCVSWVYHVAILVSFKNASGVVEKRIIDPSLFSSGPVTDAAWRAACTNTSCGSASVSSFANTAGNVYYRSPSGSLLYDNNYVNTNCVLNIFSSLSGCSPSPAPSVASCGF
The test is described as follows: cell-based or functional assay.

Several values for one entry are separate records, joined by “and”; a condition that tells them apart may be missing. Identical values can stand only once.

“Chryseobacterium sp-62563 propeptide V98*” gave a NanoDSF thermal unfolding temperature of 78.7 ° C.
As for “Chryseobacterium sp-62563 propeptide S97SK”, the NanoDSF thermal unfolding temperature stood at 81.4 ° C and the Relative activity of maturated deamidase (% initial rate) was > 100.
Regarding “Chryseobacterium sp-62563 propeptide S97ST”, the NanoDSF thermal unfolding temperature came to 81.6 ° C and the Relative activity of maturated deamidase (% initial rate) came out at 99.
In turn, “Chryseobacterium sp-62563 propeptide P44PA” returned a NanoDSF thermal unfolding temperature of 69.2 ° C.
The molecule “Chryseobacterium sp-62563 propeptide S97SY” yielded a NanoDSF thermal unfolding temperature of 82 ° C and a Relative activity of maturated deamidase (% initial rate) of 68.
With “Chryseobacterium sp-62563 propeptide I92*”, the NanoDSF thermal unfolding temperature turned out to be 77.5 ° C.
The molecule “Chryseobacterium sp-62563 propeptide T100TA” registered a Relative activity of maturated deamidase (% initial rate) of 41.
Still for that read-out and setting: the same measure for “Chryseobacterium sp-62563 propeptide S97SI”: 30; for “Chryseobacterium sp-62563 propeptide S97SF”: 50.
For “Chryseobacterium sp-62563 propeptide D90DA”, the NanoDSF thermal unfolding temperature was found to be 80.3 ° C and the Relative activity of maturated deamidase (% initial rate) is > 100.
Taken in the same sequence, the figures for “Chryseobacterium sp-62563 propeptide F95*” were 77.1 ° C and > 100.
For “Chryseobacterium sp-62563 propeptide K96*”, the NanoDSF thermal unfolding temperature is 79.5 ° C and the Relative activity of maturated deamidase (% initial rate) is > 100.
Consider “Chryseobacterium sp-62563 propeptide S97SS”, for which the NanoDSF thermal unfolding temperature is 81.1 ° C and the Relative activity of maturated deamidase (% initial rate) was > 100.
Taken in the same sequence, the figures for “Chryseobacterium sp-62563 propeptide T100*” were 81.7 ° C and 98.
Taken in the same sequence, the figures for “Chryseobacterium sp-62563 propeptide F95FA” were 79.8 ° C and > 100.

B1: Chryseobacterium sp-62563 propeptide V25H (protein)
chain: NQDPNLVAKESNETAMKDFGKTVPHGIEKEDGKFKISFMVTAQPYEIKDSKENAAYISMIKTAVENETPIHVFLKANTNEIAKVDKATDDDIRYFKSVFTKEVKEENRK
Consider B1, for which the Leakage activity came to 1% and the Relative activity of maturated deamidase (% initial rate) was determined as 76.

B2: Chryseobacterium sp-62563 propeptide Y45A (protein)
chain: NQDPNLVAKESNETAMKDFGKTVPVGIEKEDGKFKISFMVTAQPAEIKDSKENAAYISMIKTAVENETPIHVFLKANTNEIAKVDKATDDDIRYFKSVFTKEVKEENRK
B2 came in with a Leakage activity of 0% and a Relative activity of maturated deamidase (% initial rate) of 40.

B3: Chryseobacterium sp-62563 propeptide K33E (protein)
chain: NQDPNLVAKESNETAMKDFGKTVPVGIEKEDGEFKISFMVTAQPYEIKDSKENAAYISMIKTAVENETPIHVFLKANTNEIAKVDKATDDDIRYFKSVFTKEVKEENRK
Molecule B3 showed a Leakage activity of 0% and a Relative activity of maturated deamidase (% initial rate) of 66.

B4: Chryseobacterium sp-62563 propeptide T41D (protein)
chain: NQDPNLVAKESNETAMKDFGKTVPVGIEKEDGKFKISFMVDAQPYEIKDSKENAAYISMIKTAVENETPIHVFLKANTNEIAKVDKATDDDIRYFKSVFTKEVKEENRK
B4 yielded a Leakage activity of 0%.

B5: Chryseobacterium sp-62563 propeptide V23S (protein)
chain: NQDPNLVAKESNETAMKDFGKTSPVGIEKEDGKFKISFMVTAQPYEIKDSKENAAYISMIKTAVENETPIHVFLKANTNEIAKVDKATDDDIRYFKSVFTKEVKEENRK
As to B5, the Leakage activity is 10% and 7%; the NanoDSF thermal unfolding temperature was 69.8 ° C; the Relative activity of maturated deamidase (% initial rate) stood at 94.

B6: Chryseobacterium sp-62563 propeptide Q43K (protein)
chain: NQDPNLVAKESNETAMKDFGKTVPVGIEKEDGKFKISFMVTAKPYEIKDSKENAAYISMIKTAVENETPIHVFLKANTNEIAKVDKATDDDIRYFKSVFTKEVKEENRK
On to B6, for which the Leakage activity was 3% and the Relative activity of maturated deamidase (% initial rate) was 64.

B7: Chryseobacterium sp-62563 propeptide T41E (protein)
chain: NQDPNLVAKESNETAMKDFGKTVPVGIEKEDGKFKISFMVEAQPYEIKDSKENAAYISMIKTAVENETPIHVFLKANTNEIAKVDKATDDDIRYFKSVFTKEVKEENRK
As to B7, the Leakage activity came to 0% and the Relative activity of maturated deamidase (% initial rate) was 67.

B8: Chryseobacterium sp-62563 propeptide Q43D (protein)
chain: NQDPNLVAKESNETAMKDFGKTVPVGIEKEDGKFKISFMVTADPYEIKDSKENAAYISMIKTAVENETPIHVFLKANTNEIAKVDKATDDDIRYFKSVFTKEVKEENRK
With B8, the Leakage activity worked out at 0% and the Relative activity of maturated deamidase (% initial rate) is > 100.

B9: Chryseobacterium sp-62563 propeptide F38C (protein)
chain: NQDPNLVAKESNETAMKDFGKTVPVGIEKEDGKFKISCMVTAQPYEIKDSKENAAYISMIKTAVENETPIHVFLKANTNEIAKVDKATDDDIRYFKSVFTKEVKEENRK
Molecule B9 had a Leakage activity of 26%, a NanoDSF thermal unfolding temperature of 76.2 ° C and a Relative activity of maturated deamidase (% initial rate) of 83.

B10: Chryseobacterium sp-62563 propeptide F38T (protein)
chain: NQDPNLVAKESNETAMKDFGKTVPVGIEKEDGKFKISTMVTAQPYEIKDSKENAAYISMIKTAVENETPIHVFLKANTNEIAKVDKATDDDIRYFKSVFTKEVKEENRK
As to B10, the Leakage activity is 2% and the Relative activity of maturated deamidase (% initial rate) is 93.

B11: Chryseobacterium sp-62563 propeptide A42K (protein)
chain: NQDPNLVAKESNETAMKDFGKTVPVGIEKEDGKFKISFMVTKQPYEIKDSKENAAYISMIKTAVENETPIHVFLKANTNEIAKVDKATDDDIRYFKSVFTKEVKEENRK
Take B11: the Leakage activity turned out to be 0% and the Relative activity of maturated deamidase (% initial rate) is > 100.

B12: Chryseobacterium sp-62563 propeptide Q43V (protein)
chain: NQDPNLVAKESNETAMKDFGKTVPVGIEKEDGKFKISFMVTAVPYEIKDSKENAAYISMIKTAVENETPIHVFLKANTNEIAKVDKATDDDIRYFKSVFTKEVKEENRK
B12 came in with a Leakage activity of 0%.

B13: Chryseobacterium sp-62563 propeptide Q43R (protein)
chain: NQDPNLVAKESNETAMKDFGKTVPVGIEKEDGKFKISFMVTARPYEIKDSKENAAYISMIKTAVENETPIHVFLKANTNEIAKVDKATDDDIRYFKSVFTKEVKEENRK
As for B13, the Leakage activity is 0% and the Relative activity of maturated deamidase (% initial rate) amounted to 59.

B14: Chryseobacterium sp-62563 propeptide Y45K (protein)
chain: NQDPNLVAKESNETAMKDFGKTVPVGIEKEDGKFKISFMVTAQPKEIKDSKENAAYISMIKTAVENETPIHVFLKANTNEIAKVDKATDDDIRYFKSVFTKEVKEENRK
In turn, B14 had a Leakage activity of 0% and a Relative activity of maturated deamidase (% initial rate) of 48.

B15: Chryseobacterium sp-62563 propeptide Y45N (protein)
chain: NQDPNLVAKESNETAMKDFGKTVPVGIEKEDGKFKISFMVTAQPNEIKDSKENAAYISMIKTAVENETPIHVFLKANTNEIAKVDKATDDDIRYFKSVFTKEVKEENRK
Turning to B15, the Leakage activity amounted to 2% and the Relative activity of maturated deamidase (% initial rate) is 73.

B16: Chryseobacterium sp-62563 propeptide Y45G (protein)
chain: NQDPNLVAKESNETAMKDFGKTVPVGIEKEDGKFKISFMVTAQPGEIKDSKENAAYISMIKTAVENETPIHVFLKANTNEIAKVDKATDDDIRYFKSVFTKEVKEENRK
Regarding B16, the Leakage activity came out at 2%, the NanoDSF thermal unfolding temperature came to 65.2 ° C and the Relative activity of maturated deamidase (% initial rate) is > 100.

B17: Chryseobacterium sp-62563 propeptide V40P (protein)
chain: NQDPNLVAKESNETAMKDFGKTVPVGIEKEDGKFKISFMPTAQPYEIKDSKENAAYISMIKTAVENETPIHVFLKANTNEIAKVDKATDDDIRYFKSVFTKEVKEENRK
In turn, B17 had a Leakage activity of 0% and a Relative activity of maturated deamidase (% initial rate) of 39.

B18: Chryseobacterium sp-62563 propeptide Y45Q (protein)
chain: NQDPNLVAKESNETAMKDFGKTVPVGIEKEDGKFKISFMVTAQPQEIKDSKENAAYISMIKTAVENETPIHVFLKANTNEIAKVDKATDDDIRYFKSVFTKEVKEENRK
As to B18, the Leakage activity was determined as 6% and the Relative activity of maturated deamidase (% initial rate) was 88.

B19: Chryseobacterium sp-62563 propeptide K35E (protein)
chain: NQDPNLVAKESNETAMKDFGKTVPVGIEKEDGKFEISFMVTAQPYEIKDSKENAAYISMIKTAVENETPIHVFLKANTNEIAKVDKATDDDIRYFKSVFTKEVKEENRK
B19: the Leakage activity amounted to 0% and the Relative activity of maturated deamidase (% initial rate) is > 100.

B20: Chryseobacterium sp-62563 propeptide F38A (protein)
chain: NQDPNLVAKESNETAMKDFGKTVPVGIEKEDGKFKISAMVTAQPYEIKDSKENAAYISMIKTAVENETPIHVFLKANTNEIAKVDKATDDDIRYFKSVFTKEVKEENRK
As for B20, the Leakage activity amounted to 2% and the Relative activity of maturated deamidase (% initial rate) was determined as 72.

B21: Chryseobacterium sp-62563 propeptide Q43H (protein)
chain: NQDPNLVAKESNETAMKDFGKTVPVGIEKEDGKFKISFMVTAHPYEIKDSKENAAYISMIKTAVENETPIHVFLKANTNEIAKVDKATDDDIRYFKSVFTKEVKEENRK
On to B21, for which the Leakage activity was 0%.

For the origin of these results see US20250215412A1 (NOVOZYMES A S, published 2025).
